From patent US20250051449A1 (SURFACE ONCOLOGY, published 2025) come the findings set out here.

As usually defined, the EC50 is the concentration at which the effect is half-maximal.

Positions count from the first letter of the chain named.

Experiment [1] has as its target T1, human CD112R expressed on Jurkat cells (human, UniProt Q6DKI7 1-326).
T1 construct: whole, on cells; Used for both Jurkat-CD112R OE cells and wild type Jurkat cells; which cells is said under assay; also called PVRIG; Jurkat-CD112R OE
T1 sequence (looked up): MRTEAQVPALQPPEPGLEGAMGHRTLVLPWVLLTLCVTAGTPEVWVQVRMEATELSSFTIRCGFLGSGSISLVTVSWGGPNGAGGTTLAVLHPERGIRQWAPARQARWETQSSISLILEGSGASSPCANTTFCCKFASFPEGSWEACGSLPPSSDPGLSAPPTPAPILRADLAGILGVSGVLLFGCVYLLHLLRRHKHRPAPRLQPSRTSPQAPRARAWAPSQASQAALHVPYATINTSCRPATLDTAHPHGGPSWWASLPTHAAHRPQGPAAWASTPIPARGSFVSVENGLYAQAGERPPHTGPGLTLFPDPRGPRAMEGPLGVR
The experiment in a line: flow cytometry, wild type Jurkat cells, 0.63 ug/mL antibody. The method, then: The ability of anti-CD112R antibodies to bind to CD112R expressed on cells was evaluated. 1×10⁵ Jurkat cells (acute T cell leukemia cell line, ATCC #TIB-152) that were either wild type or engineered to over-express human CD112R (Jurkat-CD112R OE) were added to each well of a 96-well V bottom plate and stained with either anti-CD112R antibodies or an IgG1 isotype control (0.63 μg/mL) for 1 hour at 4° C. Cells were washed twice with PBS+2% FCS and resuspended with Alexa Fluor® 647 anti-human IgG Fc antibody (Biolegend, Cat #409320) diluted 1:100 in PBS+2% FCS and incubated at 4° C. for 30 minutes. Cells were subsequently washed twice and resuspended in PBS+2% FCS. Cellular data was acquired using a LSRFortessa X-20 (BD Biosciences) and analyzed with FlowJo software (Tree Star).
Background: In flow cytometry, cells or beads pass a laser one at a time.

Experiment [2] concerns the target T2, mouse CD112R-hIgG4 fusion protein (mouse; human).
T2 construct: also called soluble mouse CD112R; soluble murine CD112R
Briefly: ELISA: coated antibody, titrated mouse CD112R-hIgG4, anti-IgG4 HRP. Here is the method:
The ability of anti-CD112R antibodies to bind to soluble mouse CD112R was evaluated by ELISA. Briefly. 96 well Nunc Maxisorp plates were coated with 1 μg/mL of anti-CD112R antibodies or isotype control (Biolegend. Cat #403502) in PBS overnight at 4° C. […] After blocking, plates were washed 6× with PBST. Next. 100 μL of a mouse CD112R-hIgG4 fusion protein in PBS+1% BSA was added at a final starting concentration of 10 μg/mL, with 4-fold serial dilutions. Plates were incubated at room temperature for 1.5 hours. Next plates were washed 6× with PBST and then incubated with anti-IgG4 HRP (Thermo Fisher, Cat #MA1-33437) in 100 μL for 1 hour at room temperature. Plates were then washed 6× with PBST and developed with TMB substrate (Life Technologies. Cat #002023). The reaction was stopped with an equal volume of stop solution (Life Technologies. Cat #SS04). Absorbance at 450 nm (O.D. 450) was measured on a SpectraMax plate reader.

Experiment [3] addresses T3, CD112R-hIgG4 fusion protein (human, UniProt Q6DKI7 41-171, limits assumed).
T3 construct: also called human CD112R-hIgG4; not shown: human IgG4 portion (hIgG4)
T3 sequence (looked up): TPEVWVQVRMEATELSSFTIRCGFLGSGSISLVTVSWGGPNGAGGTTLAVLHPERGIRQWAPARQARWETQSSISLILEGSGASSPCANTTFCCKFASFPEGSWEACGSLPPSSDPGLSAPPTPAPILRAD
Briefly: blocking ELISA: coated CD112R-hIgG4, antibody, then biotinylated CD112 Fc. Here is the method: The ability of anti-CD112R antibodies to block human CD112R was also evaluated by ELISA. Briefly, 96 well Nunc Maxisorp plates were coated with 1 μg/mL of a CD112R-hIgG4 fusion protein in PBS overnight at 4° C. […] After blocking, plates were washed 6× with PBST. Next, 100 μl of anti-CD112R antibodies in PBS+1% BSA was added at a final starting concentration of 10 μg/mL, with 4-fold serial dilutions. Plates were incubated at room temperature for 1.5 hours. Next plates were washed 6× with PBST and then incubated with 1 μg/ml CD112 Fc protein (R&D Systems, Cat #9317-N2-050) that was biotinylated with a sulfo-NHS biotinylation kit (Thermo Fisher, Cat #21925) in 100 μl of PBS+1% BSA for 1 hour at room temperature. Plates were then washed 6× with PBST and subsequently incubated with streptavidin-HRP (Biolegend, Cat #405210) diluted in PBS+1% BSA according to the manufacturer recommendation for 1 hour at room temperature. Following this incubation, plates were then washed 6× with PBST and developed with TMB substrate (Life Technologies, Cat #002023). The reaction was stopped with an equal volume of stop solution (Life Technologies, Cat #SS04). Absorbance at 450 nm (O.D. 450) was measured on a SpectraMax plate reader.
Results are depicted in FIG. 2B and Table 2. […] Percent inhibition was calculated as [100−((test sample O.D. 450/Max 0.D. 450)*100%)] Max O.D. 450 was defined as absorbance at 450 nm in the absence of antibody.

B1: Antibody 46 (antibody, V domains shown)
VH: EVQLVESGGGLVQPGRSLRLSCTASGFTFGDYAMSWFRQAPGKGLEWVGFIGSKAYGGTTEYTASVKGRFTISRDGSKSIAYLQMNSLKTEDTAVYYCARGPRRYTYGMDVWGQGTTVTVSS
VL: DIQMTQSPSSLSASVGDRVTITCRASQSISSYLNWYQQKPGKAPKLLIYAASSLQSGVPSRFSGSGSGTDFTLTISSLQPEDFATYYCQQSSTPLTFGGGTKVEIK
notes: in the mouse tumor studies it was used as mouse IgG2a; also called antibody clone number 46; clone 46
As to B1, the “gMFI (fold increase over isotype)” value in experiment [1] is 4.2 fold increase over isotype. The 50% effective concentration (EC50) in experiment [2] was 0.181 µg/mL. The “CD112 blocking max inhibition ELISA (%)” value in experiment [3] was found to be 97.6%.

B2: Antibody 32 (antibody, V domains shown)
VH: QVQLVQSGAEVKKPGSSVKVSCKASGGTFSSYAISWVRQAPGQGLEWMGGIIPISGTANYAQKFQGRVTITADESTSTAYMELSSLRSEDTAVYYCARDTGRGYTRHFWFDPWGQGTLVTVSS
VL: B1 VL with S92D, T93I, P94L, L95Y
notes: Purified as IgG; compared with an IgG1 isotype control and detected with anti-human IgG Fc; also called antibody clone number 32; parent clone 32
For B2, the “gMFI (fold increase over isotype)” value in experiment [1] was 2.5 fold increase over isotype. In experiment [2], this molecule displayed a concentration giving a half-maximal response (EC50) of 0.27 µg/mL. In experiment [3], the “CD112 blocking max inhibition ELISA (%)” value is 75.1%.

B3: Antibody 58 (antibody, V domains shown)
VH: B1 VH with A55F, T59E
VL: B1 VL
notes: Purified as IgG; compared with an IgG1 isotype control and detected with anti-human IgG Fc; also called antibody clone number 58; clone 58
For B3, the “gMFI (fold increase over isotype)” value in experiment [1] is 4.5 fold increase over isotype. For the same molecule, the EC50 in experiment [2] worked out at 0.412 µg/mL. Further, the “CD112 blocking max inhibition ELISA (%)” value in experiment [3] amounted to 97.3%.

B4: Antibody 34 (antibody, V domains shown)
VH: B2 VH with Y32A, I52F, T57H
VL: B1 VL with S92D, T93I, P94L, L95Y
notes: Purified as IgG; compared with an IgG1 isotype control and detected with anti-human IgG Fc; also called antibody clone number 34; clone 34
As to B4, in experiment [1], the “gMFI (fold increase over isotype)” value is 3.8 fold increase over isotype. This molecule also displayed an EC50 in experiment [2] of 0.0242 µg/mL. Besides, the “CD112 blocking max inhibition ELISA (%)” value in experiment [3] turned out to be 80%.

B5: Antibody 36 (antibody, V domains shown)
VH: B2 VH with S30A, S31T, I52F, I54L
VL: B1 VL with S92D, T93I, P94L, L95Y
notes: Purified as IgG; compared with an IgG1 isotype control and detected with anti-human IgG Fc; also called antibody clone number 36; clone 36
As to B5, in experiment [1], the “gMFI (fold increase over isotype)” value was 3.5 fold increase over isotype. Further, a half-maximal response in experiment [2] (EC50) required 0.0251 µg/mL. Further, the “CD112 blocking max inhibition ELISA (%)” value in experiment [3] turned out to be 86.2%.

B6: Antibody 33 (antibody, V domains shown)
VH: B2 VH with S30G, S31N, S55P, T57I
VL: B1 VL with S92D, T93I, P94L, L95Y
notes: Purified as IgG; compared with an IgG1 isotype control and detected with anti-human IgG Fc; also called antibody clone number 33; clone 33
Regarding B6, the “gMFI (fold increase over isotype)” value in experiment [1] was 3.4 fold increase over isotype. In experiment [2], this molecule displayed an EC50 of 0.0383 µg/mL. The “CD112 blocking max inhibition ELISA (%)” value in experiment [3] was 78.8%.

B7: Antibody 35 (antibody, V domains shown)
VH: B2 VH with Y32A, G50N, S55V, T57I
VL: B1 VL with S92D, T93I, P94L, L95Y
notes: Purified as IgG; compared with an IgG1 isotype control and detected with anti-human IgG Fc; also called antibody clone number 35; clone 35
As for B7, the “gMFI (fold increase over isotype)” value in experiment [1] is 3.3 fold increase over isotype. The molecule further had an EC50 in experiment [2] of 0.0215 µg/mL. Further, in experiment [3], the “CD112 blocking max inhibition ELISA (%)” value came out at 81.7%.
